In article PMC7979749, “Structural basis of the dynamic human CEACAM1 monomer-dimer equilibrium” (Communications Biology, 2021):

B1: human CEACAM1 IgV domain, wildtype [human] / itself (parent)
chain: AQLTTESMPFNVAEGKEVLLLVHNLPQQLFGYSWYKGERVDGNRQIVGYAIGTQQATPGPANSGRETIYPNASLLIQNVTQNDTGFYTLQVIKSDLVNEEATGQFHVY

Variants of: B1
Assay: SEC-MALS
Settings: with itself; 100 μM protein; read off a plot

Variant | screen value
chain 1 I92A | 15000 Daltons
chain 1 E100A | 15000 Daltons
chain 1 V40A | 19000 Daltons
